Results as given in patent US20030148958A1 (PROCTER AND GAMBLE, published 2003).

T1: CRF2R
T1 sequence (Q13324 whole entry, species assumed, looked up): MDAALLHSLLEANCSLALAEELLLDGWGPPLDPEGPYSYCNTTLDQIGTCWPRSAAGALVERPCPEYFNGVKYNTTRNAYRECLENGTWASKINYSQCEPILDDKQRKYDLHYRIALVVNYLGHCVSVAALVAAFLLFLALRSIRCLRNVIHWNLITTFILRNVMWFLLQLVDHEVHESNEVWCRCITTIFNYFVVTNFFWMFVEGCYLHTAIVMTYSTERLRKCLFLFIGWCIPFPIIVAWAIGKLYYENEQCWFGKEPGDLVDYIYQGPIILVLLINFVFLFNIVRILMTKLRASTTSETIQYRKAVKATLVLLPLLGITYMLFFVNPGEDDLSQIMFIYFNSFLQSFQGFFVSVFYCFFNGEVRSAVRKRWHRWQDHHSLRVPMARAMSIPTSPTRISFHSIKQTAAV


biological target: CRF1R; test: cell-based or functional assay
Wherever CRF1R Emax % is given: reference of the scale not given here.
Wherever CRF2R Emax % is given: reference of the scale not given here.

Row | CRF1R EC50 [nM] | CRF1R Emax % [%] | Binder
1 | 926 | 80 | ZGPPISIDLPFQLLRKMIEIEKQEKEKQQAANNALLLDTI (C-terminal amide) [SEQ ID NO 251]
2 | 226 | 100 | ZGPPISIDLPTYLLRILIEIEKQEKEKQQAANNRLLLDTI (not fully specified; C-terminal amide) [SEQ ID NO 252]
3 | 708 | 6 | ZGPPISIDVPIGLLRKMIEIEKQEKEKQQAANNRLLLDTI (not fully specified; C-terminal amide) [SEQ ID NO 254]
4 | 1000 | 42 | ZGPPISIDVPTYLLRKMIEIEKQEKEKQQAANNRLLLDTI (C-terminal amide) [SEQ ID NO 253]
5 | 33.3 | 84 | ZGPPISIDLPFQLLRILIEIEKQEKEKQQAANNRLLLDTI (not fully specified; C-terminal amide) [SEQ ID NO 255]
6 | 138 | 99 | ZGPPISIDLPFQLLRKMIEIEKQEKEKQQAANNRLLLATI (not fully specified; C-terminal amide) [SEQ ID NO 250]

Continued, binder first:

Row | Binder | CRF1R EC50 [nM] | CRF1R Emax % [%]
7 | ZGPPISIDLPLQLLEKMIEIEKQEKEKQQATTNARLLDRV (C-terminal amide) [SEQ ID NO 247] | 1000 | 34
8 | ZGPPISIDLPLYLLRKMIEIEKQEKEKQQAANNALLLDTI (C-terminal amide) [SEQ ID NO 244] | 300 | 100
9 | ZGPPISIDLPLQLLRKMIEIEKQEKEKQQAANNALLLDTI (not fully specified; C-terminal amide) [SEQ ID NO 248] | 1000 | 32
10 | ZGPPISIDLPLQLLEKMIEIEKQEKEKQQAANNALLLATI (not fully specified; C-terminal amide) [SEQ ID NO 249] | 1000 | 50
11 | ZGPPISIDLPLQLLRKMIEIEKQEKEKQQATTNARLLDTV (C-terminal amide) [SEQ ID NO 246] | 1000 | 33
12 | ZGPPISIDLPLYLLRKMIEIEKQEKEKQQAANNALLLATI (C-terminal amide) [SEQ ID NO 245] | 381 | 100

biological target: T1, CRF2R; test: cell-based or functional assay

Row | CRF2R EC50 [nM] | CRF2R Emax % [%] | Binder
13 | 11.8 | 100 | ZGPPISIDLPFQLLRKMIEIEKQEKEKQQAANNALLLDTI (C-terminal amide) [SEQ ID NO 251]
14 | 22.3 | 100 | ZGPPISIDLPTYLLRILIEIEKQEKEKQQAANNRLLLDTI (not fully specified; C-terminal amide) [SEQ ID NO 252]
15 | 100 | 36 | ZGPPISIDVPIGLLRKMIEIEKQEKEKQQAANNRLLLDTI (not fully specified; C-terminal amide) [SEQ ID NO 254]
16 | 41.8 | 86 | ZGPPISIDVPTYLLRKMIEIEKQEKEKQQAANNRLLLDTI (C-terminal amide) [SEQ ID NO 253]
17 | 7 | 100 | ZGPPISIDLPFQLLRILIEIEKQEKEKQQAANNRLLLDTI (not fully specified; C-terminal amide) [SEQ ID NO 255]
18 | 19.7 | 100 | ZGPPISIDLPFQLLRKMIEIEKQEKEKQQAANNRLLLATI (not fully specified; C-terminal amide) [SEQ ID NO 250]

Further lines, the binder ahead of its results:

Row | Binder | CRF2R EC50 [nM] | CRF2R Emax % [%]
19 | ZGPPISIDLPLQLLEKMIEIEKQEKEKQQATTNARLLDRV (C-terminal amide) [SEQ ID NO 247] | 18.8 | 100
20 | ZGPPISIDLPLYLLRKMIEIEKQEKEKQQAANNALLLDTI (C-terminal amide) [SEQ ID NO 244] | 8.8 | 98
21 | ZGPPISIDLPLQLLRKMIEIEKQEKEKQQAANNALLLDTI (not fully specified; C-terminal amide) [SEQ ID NO 248] | 19.6 | 98
22 | ZGPPISIDLPLQLLEKMIEIEKQEKEKQQAANNALLLATI (not fully specified; C-terminal amide) [SEQ ID NO 249] | 12.2 | 92
23 | ZGPPISIDLPLQLLRKMIEIEKQEKEKQQATTNARLLDTV (C-terminal amide) [SEQ ID NO 246] | 38.8 | 100
24 | ZGPPISIDLPLYLLRKMIEIEKQEKEKQQAANNALLLATI (C-terminal amide) [SEQ ID NO 245] | 7.5 | 93
